In the supplement of paper PMC10567573:

B1: MYBL2 (parent)
chain: FSPSQFLNFWNKQDTLELESPSLT
B2: WDFY1 (parent)
chain: FWNIKQMWDTKTLGLRQHHCRKCG

Variants of: B1
Experiment: protein stability index of a GFP-peptide fusion (GPS, HEK-293T) (PSI 1-6); higher = more stable
Settings: c terminus: a fixed tail appended
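Also: lentivirally expressed fusions sorted by FACS into six bins by GFP to DsRed ratio, PSI derived from sequencing read proportions per bin multiplied by bin number.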

Variant | protein stability index
FSPSQFLNFWNKQDTLENESPSLT | 1.98
FSPSQFLNFWNKQDTLEPESPSLT | 2.1
FSPSQFLNFWNKQDTLEQESPSLT | 3.72
FSPSQFLNFWNKQDTLERESPSLT | 2.95
FSPSQFLNFWNKQDTLESESPSLT | 1.84
FSPSQFLNFWNKQDTLETESPSLT | 3.04
FSPSQFLNFWNKQDTLEVESPSLT | 3.28
FSPSQFLNFWNKQDTLEWESPSLT | 5.25
FSPSQFLNFWNKQDTLEYESPSLT | 3.16
FSPSQFLNFWNKQDTLELASPSLT | 2.63
FSPSQFLNFWNKQDTLELCSPSLT | 3.63
FSPSQFLNFWNKQDTLELDSPSLT | 3.09
FSPSQFLNFWNKQDTLELFSPSLT | 2.58
FSPSQFLNFWNKQDTLELGSPSLT | 1.66
FSPSQFLNFWNKQDTLELHSPSLT | 2.88
FSPSQFLNFWNKQDTLELISPSLT | 2.94
FSPSQFLNFWNKQDTLELLSPSLT | 4.26
FSPSQFLNFWNKQDTLELNSPSLT | 3.12
FSPSQFLNFWNKQDTLELPSPSLT | 2.86
FSPSQFLNFWNKQDTLELRSPSLT | 2.75
FSPSQFLNFWNKQDTLELSSPSLT | 2.07
FSPSQFLNFWNKQDTLELTSPSLT | 2.39
FSPSQFLNFWNKQDTLELVSPSLT | 2.8
FSPSQFLNFWNKQDTLELWSPSLT | 2.64

Variant | protein stability index
FSPSQFLNFWNKQDTLELYSPSLT | 2.11
FSPSQFLNFWNKQDTLELECPSLT | 2.08
FSPSQFLNFWNKQDTLELEDPSLT | 2.62
FSPSQFLNFWNKQDTLELEEPSLT | 1.23
FSPSQFLNFWNKQDTLELEFPSLT | 2.57
FSPSQFLNFWNKQDTLELEGPSLT | 2.84
FSPSQFLNFWNKQDTLELEIPSLT | 2.75
FSPSQFLNFWNKQDTLELEKPSLT | 2.35
FSPSQFLNFWNKQDTLELELPSLT | 1.89
FSPSQFLNFWNKQDTLELEMPSLT | 3.66
FSPSQFLNFWNKQDTLELEPPSLT | 1.65
FSPSQFLNFWNKQDTLELEQPSLT | 3.9
FSPSQFLNFWNKQDTLELERPSLT | 2.26
FSPSQFLNFWNKQDTLELETPSLT | 2.83
FSPSQFLNFWNKQDTLELEVPSLT | 2.31
FSPSQFLNFWNKQDTLELEWPSLT | 2.37
FSPSQFLNFWNKQDTLELESCSLT | 2.77
FSPSQFLNFWNKQDTLELESDSLT | 2.2
FSPSQFLNFWNKQDTLELESESLT | 2.64
FSPSQFLNFWNKQDTLELESFSLT | 3.56
FSPSQFLNFWNKQDTLELESGSLT | 3.5
FSPSQFLNFWNKQDTLELESISLT | 3.74
FSPSQFLNFWNKQDTLELESKSLT | 3.01
FSPSQFLNFWNKQDTLELESLSLT | 3.37

Variant | protein stability index
FSPSQFLNFWNKQDTLELESMSLT | 3.16
FSPSQFLNFWNKQDTLELESNSLT | 3.41
FSPSQFLNFWNKQDTLELESQSLT | 2.56
FSPSQFLNFWNKQDTLELESRSLT | 2.36
FSPSQFLNFWNKQDTLELESSSLT | 2.09
FSPSQFLNFWNKQDTLELESTSLT | 2.36
FSPSQFLNFWNKQDTLELESVSLT | 2.53
FSPSQFLNFWNKQDTLELESWSLT | 3.86
FSPSQFLNFWNKQDTLELESYSLT | 2.69
FSPSQFLNFWNKQDTLELESPCLT | 4.69
FSPSQFLNFWNKQDTLELESPFLT | 3.27
FSPSQFLNFWNKQDTLELESPHLT | 2.56
FSPSQFLNFWNKQDTLELESPILT | 2.72
FSPSQFLNFWNKQDTLELESPKLT | 3.1
FSPSQFLNFWNKQDTLELESPNLT | 3.17
FSPSQFLNFWNKQDTLELESPPLT | 1.89
FSPSQFLNFWNKQDTLELESPTLT | 2.82
FSPSQFLNFWNKQDTLELESPVLT | 2.95
FSPSQFLNFWNKQDTLELESPWLT | 3
FSPSQFLNFWNKQDTLELESPYLT | 2.61
FSPSQFLNFWNKQDTLELESPSAT | 2.08
FSPSQFLNFWNKQDTLELESPSCT | 2.71
FSPSQFLNFWNKQDTLELESPSDT | 3.49
FSPSQFLNFWNKQDTLELESPSET | 2.26

Variant | protein stability index
FSPSQFLNFWNKQDTLELESPSFT | 3.38
FSPSQFLNFWNKQDTLELESPSGT | 2.27
FSPSQFLNFWNKQDTLELESPSHT | 2.79
FSPSQFLNFWNKQDTLELESPSIT | 4.19
FSPSQFLNFWNKQDTLELESPSMT | 2.41
FSPSQFLNFWNKQDTLELESPSNT | 2.65
FSPSQFLNFWNKQDTLELESPSRT | 2.97
FSPSQFLNFWNKQDTLELESPSST | 2.13
FSPSQFLNFWNKQDTLELESPSVT | 2.91
FSPSQFLNFWNKQDTLELESPSLA | 3.17
FSPSQFLNFWNKQDTLELESPSLC | 3.38
FSPSQFLNFWNKQDTLELESPSLE | 2.34
FSPSQFLNFWNKQDTLELESPSLI | 2.2
FSPSQFLNFWNKQDTLELESPSLK | 3.62
FSPSQFLNFWNKQDTLELESPSLL | 2.52
FSPSQFLNFWNKQDTLELESPSLM | 2.65
FSPSQFLNFWNKQDTLELESPSLN | 2.1
FSPSQFLNFWNKQDTLELESPSLP | 3.08
FSPSQFLNFWNKQDTLELESPSLR | 3.41
FSPSQFLNFWNKQDTLELESPSLS | 2.36
FSPSQFLNFWNKQDTLELESPSLW | 2.86
FSPSQFLNFWNKQDTLELESPSLY | 2.73

Variants of: B2
Experiment: as above
Settings: c terminus: a fixed tail appended

Variant | protein stability index
AWNIKQMWDTKTLGLRQHHCRKCG | 2.11
CWNIKQMWDTKTLGLRQHHCRKCG | 2.65
DWNIKQMWDTKTLGLRQHHCRKCG | 2.79
EWNIKQMWDTKTLGLRQHHCRKCG | 2.61
GWNIKQMWDTKTLGLRQHHCRKCG | 2.3
HWNIKQMWDTKTLGLRQHHCRKCG | 2.36
IWNIKQMWDTKTLGLRQHHCRKCG | 1.91
KWNIKQMWDTKTLGLRQHHCRKCG | 2.45
LWNIKQMWDTKTLGLRQHHCRKCG | 1.62
MWNIKQMWDTKTLGLRQHHCRKCG | 2.98
NWNIKQMWDTKTLGLRQHHCRKCG | 2.76
PWNIKQMWDTKTLGLRQHHCRKCG | 2.29
QWNIKQMWDTKTLGLRQHHCRKCG | 2.31
RWNIKQMWDTKTLGLRQHHCRKCG | 1.54
SWNIKQMWDTKTLGLRQHHCRKCG | 2.46
TWNIKQMWDTKTLGLRQHHCRKCG | 2.28
VWNIKQMWDTKTLGLRQHHCRKCG | 1.97
WWNIKQMWDTKTLGLRQHHCRKCG | 2.16
YWNIKQMWDTKTLGLRQHHCRKCG | 2.02
FANIKQMWDTKTLGLRQHHCRKCG | 2.24
FCNIKQMWDTKTLGLRQHHCRKCG | 1.14
FDNIKQMWDTKTLGLRQHHCRKCG | 2.19
FENIKQMWDTKTLGLRQHHCRKCG | 2.53
FFNIKQMWDTKTLGLRQHHCRKCG | 2.55

Variant | protein stability index
FGNIKQMWDTKTLGLRQHHCRKCG | 1.47
FHNIKQMWDTKTLGLRQHHCRKCG | 1.43
FINIKQMWDTKTLGLRQHHCRKCG | 2.41
FKNIKQMWDTKTLGLRQHHCRKCG | 2.29
FLNIKQMWDTKTLGLRQHHCRKCG | 2.47
FMNIKQMWDTKTLGLRQHHCRKCG | 2.32
FNNIKQMWDTKTLGLRQHHCRKCG | 2.46
FPNIKQMWDTKTLGLRQHHCRKCG | 2.32
FQNIKQMWDTKTLGLRQHHCRKCG | 1.75
FRNIKQMWDTKTLGLRQHHCRKCG | 2.82
FSNIKQMWDTKTLGLRQHHCRKCG | 1.62
FTNIKQMWDTKTLGLRQHHCRKCG | 1.67
FVNIKQMWDTKTLGLRQHHCRKCG | 2.71
FYNIKQMWDTKTLGLRQHHCRKCG | 2.74
FWAIKQMWDTKTLGLRQHHCRKCG | 1.56
FWCIKQMWDTKTLGLRQHHCRKCG | 2.56
FWDIKQMWDTKTLGLRQHHCRKCG | 2.02
FWEIKQMWDTKTLGLRQHHCRKCG | 2.05
FWFIKQMWDTKTLGLRQHHCRKCG | 1.96
FWGIKQMWDTKTLGLRQHHCRKCG | 2.17
FWHIKQMWDTKTLGLRQHHCRKCG | 1.85
FWIIKQMWDTKTLGLRQHHCRKCG | 1.5
FWKIKQMWDTKTLGLRQHHCRKCG | 1.41
FWLIKQMWDTKTLGLRQHHCRKCG | 1.54

Variant | protein stability index
FWMIKQMWDTKTLGLRQHHCRKCG | 2.23
FWPIKQMWDTKTLGLRQHHCRKCG | 2.57
FWQIKQMWDTKTLGLRQHHCRKCG | 1.96
FWRIKQMWDTKTLGLRQHHCRKCG | 2.13
FWSIKQMWDTKTLGLRQHHCRKCG | 1.61
FWTIKQMWDTKTLGLRQHHCRKCG | 1.23
FWVIKQMWDTKTLGLRQHHCRKCG | 1.27
FWWIKQMWDTKTLGLRQHHCRKCG | 2.85
FWYIKQMWDTKTLGLRQHHCRKCG | 2.37
FWNAKQMWDTKTLGLRQHHCRKCG | 1.89
FWNCKQMWDTKTLGLRQHHCRKCG | 2.67
FWNDKQMWDTKTLGLRQHHCRKCG | 2.56
FWNEKQMWDTKTLGLRQHHCRKCG | 3.05
FWNFKQMWDTKTLGLRQHHCRKCG | 1.54
FWNGKQMWDTKTLGLRQHHCRKCG | 2.19
FWNHKQMWDTKTLGLRQHHCRKCG | 2.56
FWNKKQMWDTKTLGLRQHHCRKCG | 2
FWNLKQMWDTKTLGLRQHHCRKCG | 1.74
FWNMKQMWDTKTLGLRQHHCRKCG | 2.35
FWNNKQMWDTKTLGLRQHHCRKCG | 2.13
FWNPKQMWDTKTLGLRQHHCRKCG | 2.55
FWNQKQMWDTKTLGLRQHHCRKCG | 3.12
FWNRKQMWDTKTLGLRQHHCRKCG | 1.45
FWNSKQMWDTKTLGLRQHHCRKCG | 1.95

Variant | protein stability index
FWNTKQMWDTKTLGLRQHHCRKCG | 2.14
FWNVKQMWDTKTLGLRQHHCRKCG | 2.52
FWNWKQMWDTKTLGLRQHHCRKCG | 3.44
FWNYKQMWDTKTLGLRQHHCRKCG | 1.9
FWNIAQMWDTKTLGLRQHHCRKCG | 1.97
FWNICQMWDTKTLGLRQHHCRKCG | 1.79
FWNIDQMWDTKTLGLRQHHCRKCG | 2.27
FWNIEQMWDTKTLGLRQHHCRKCG | 2.43
FWNIFQMWDTKTLGLRQHHCRKCG | 2.33
FWNIGQMWDTKTLGLRQHHCRKCG | 1.96
FWNIHQMWDTKTLGLRQHHCRKCG | 2.03
FWNIIQMWDTKTLGLRQHHCRKCG | 2.15
FWNILQMWDTKTLGLRQHHCRKCG | 1.07
FWNIMQMWDTKTLGLRQHHCRKCG | 1.87
FWNINQMWDTKTLGLRQHHCRKCG | 2.28
FWNIPQMWDTKTLGLRQHHCRKCG | 2.17
FWNIQQMWDTKTLGLRQHHCRKCG | 2.03
FWNIRQMWDTKTLGLRQHHCRKCG | 1.82
FWNISQMWDTKTLGLRQHHCRKCG | 1.72
FWNITQMWDTKTLGLRQHHCRKCG | 1.97
FWNIVQMWDTKTLGLRQHHCRKCG | 1.69
FWNIWQMWDTKTLGLRQHHCRKCG | 2.11
